Laboratory results published in patent US10869832B2, “Substance delivery device and substance delivery method using the same” (priority 2013, dated 2020).

System: OVA-specific IgG
Test: OVA-specific IgG by ELISA after single-dose immunization
Format: in vivo
Conditions: SD rats, two weeks after injection, single dose (IM 500 μg OVA, MN 200 μg OVA)
Description: 4-week-old SD rats are divided into four groups. Rats of the first three groups are injected with saline, OVA, and chitosan hydrogel loaded with OVA by intramuscular inoculation, respectively. The fourth group is administrated with OVA through the microneedle patch of the present embodiment. In detail, the SD rat is weighed, anesthetized, and shaved. 200 μl of saline is injected into the thigh of each SD rat of the first group (“IM saline” group). 500 μg of OVA in the same volume are injected into the thigh of each SD rat of the second group (“IM-OVA” group). 200 μl of chitosan hydrogel loaded with 500 μg of OVA (mixed in the same ratio as the microneedle patch) are injected into the thigh of each SD rat of the third group (“IM-OVA+CS” group). A microneedle patch encapsulating 200 μg of OVA is applied the each SD rat of the fourth group (“MN-OVA” group). The blood of each SD rat of each group sampled at the 0, 2nd and 4th week after injection is centrifuged for 5 minutes at 3000 rpm to separate serum from blood cells in the plasma. IgG levels in the collected serum are then evaluated by ELISA.

B1: IM-OVA: 500 μg of OVA (ovalbumin) injected intramuscularly (protein, UniProt P01012 2-386, looked up)
Ovalbumin: GSIGAASMEFCFDVFKELKVHHANENIFYCPIAIMSALAMVYLGAKDSTRTQINKVVRFDKLPGFGDSIEAQCGTSVNVHSSLRDILNQITKPNDVYSFSLASRLYAEERYPILPEYLQCVKELYRGGLEPINFQTAADQARELINSWVESQTNGIIRNVLQPSSVDSQTAMVLVNAIVFKGLWEKAFKDEDTQAMPFRVTEQESKPVQMMYQIGLFRVASMASEKMKILELPFASGTMSMLVLLPDEVSGLEQLESIINFEKLTEWTSSNVMEERKIKVYLPRMKMEEKYNLTSVLMAMGITDVFSSSANLSGISSAESLKISQAVHAAHAEINEAGREVVGSAEAGVDAASVSEEFRADHPFLFCIKHIATNAVLFFGRCVSP
OVA-specific IgG level: much lower than the MN-OVA and IM-OVA+CS group
